Residue numbers refer to the chain shown, from its start.
T1: His-tagged human B7-H3 (human, UniProt Q5ZPR3-2 29-245, limits assumed)
T1 construct: Bought His-tagged protein coated on the ELISA plate; also called hu B7-H3; CD276
T1 sequence (looked up): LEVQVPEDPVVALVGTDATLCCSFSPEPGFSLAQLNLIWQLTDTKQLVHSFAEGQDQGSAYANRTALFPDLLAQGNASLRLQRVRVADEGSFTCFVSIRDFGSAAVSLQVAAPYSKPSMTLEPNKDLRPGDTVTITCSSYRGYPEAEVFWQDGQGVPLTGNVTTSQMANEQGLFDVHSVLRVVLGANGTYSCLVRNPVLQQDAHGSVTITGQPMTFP

T2: His-tagged cynomolgus monkey B7-H3 (cynomolgus monkey)
T2 chain: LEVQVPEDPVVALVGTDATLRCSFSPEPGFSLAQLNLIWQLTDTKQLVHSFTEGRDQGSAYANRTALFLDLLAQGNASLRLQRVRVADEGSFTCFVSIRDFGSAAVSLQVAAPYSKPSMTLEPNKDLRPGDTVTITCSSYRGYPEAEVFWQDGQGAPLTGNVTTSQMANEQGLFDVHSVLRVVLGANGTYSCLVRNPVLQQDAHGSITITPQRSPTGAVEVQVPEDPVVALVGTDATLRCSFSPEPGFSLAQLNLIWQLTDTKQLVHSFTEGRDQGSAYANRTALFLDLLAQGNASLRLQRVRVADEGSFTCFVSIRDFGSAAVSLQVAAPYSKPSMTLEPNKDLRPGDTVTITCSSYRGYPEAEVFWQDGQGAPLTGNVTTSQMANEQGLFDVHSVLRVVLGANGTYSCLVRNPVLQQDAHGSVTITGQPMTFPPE

T3: His-tagged mouse B7-H3 (mouse, UniProt Q8VE98 29-244, limits assumed)
T3 construct: Bought His-tagged protein coated on the ELISA plate; also called mu B7-H3; murine B7-H3
T3 sequence (looked up): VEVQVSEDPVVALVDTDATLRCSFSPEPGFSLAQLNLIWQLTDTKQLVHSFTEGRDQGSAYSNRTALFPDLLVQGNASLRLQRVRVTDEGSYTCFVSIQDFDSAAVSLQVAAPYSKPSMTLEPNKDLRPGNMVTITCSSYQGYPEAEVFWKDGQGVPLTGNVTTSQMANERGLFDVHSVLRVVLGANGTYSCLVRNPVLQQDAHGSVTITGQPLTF

T4: B7-H3 on B7-H3-expressing CHO cells (Genescript) (UniProt Q5ZPR3 29-534, limits assumed)
T4 construct: whole, on cells; also called CHO-K1/B7-H3; MFI B7-H3
T4 sequence (looked up): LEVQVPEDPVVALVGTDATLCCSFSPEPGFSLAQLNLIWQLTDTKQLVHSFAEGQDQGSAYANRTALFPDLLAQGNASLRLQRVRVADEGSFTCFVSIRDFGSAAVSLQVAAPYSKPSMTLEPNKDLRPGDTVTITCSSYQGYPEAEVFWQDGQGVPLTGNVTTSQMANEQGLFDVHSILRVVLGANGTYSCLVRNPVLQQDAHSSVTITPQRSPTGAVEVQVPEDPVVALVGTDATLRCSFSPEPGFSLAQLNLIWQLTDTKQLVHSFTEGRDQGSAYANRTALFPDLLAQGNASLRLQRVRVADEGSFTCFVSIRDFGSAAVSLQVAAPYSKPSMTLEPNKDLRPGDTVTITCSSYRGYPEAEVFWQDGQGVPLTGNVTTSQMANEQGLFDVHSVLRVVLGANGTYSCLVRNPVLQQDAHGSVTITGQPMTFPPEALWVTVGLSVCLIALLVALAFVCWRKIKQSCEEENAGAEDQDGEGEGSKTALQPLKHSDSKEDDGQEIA

B1: 40511p1.1.H10 (scFv, V domains shown)
VH: DVQLVESGGGVVRPGESLRLSCAASGFTFSNYAMNWVRQAPGEGLEWVSRINYKGYNITYYADSVKGRFTISRDNSKNTLYLQMNSLRAEDTAVYYCAKSGSNSNNFFDYWGLGTLVTVSS
VL: EIVLTQSPGNLSLSPGERATLSCRASQSVGSQLGWYQQKPGQAPRLLIYGASTRATGIPDRFSGSGSGTEFALTISSLQSEDFAVYYCQQYYDWPPLTFGGGTKVEIK
notes: Tested as scFv-Fc (Expi293 supernatant)
B2: 40579p1.D1 (scFv, V domains shown)
VH: EVQLLESGGGLVQPGGSLRLSCAASGFTFSDYYMSWVRQAPGKGLEWVSSISISYGGTTYYADSVKGRFTISRDNSKNTLYLQMNSLRAEDTAVYYCARDRSPYQCRSMDVWGQGTTVTVSS
VL: B1 VL with N10S, G30N, Q32D, G34A, G50A, T53S, D60A, A72T, Y92N, D93N
notes: as for B1
B3: 40511p1.2.G10 (scFv, V domains shown)
VH: B1 VH
VL: B1 VL with N10T, S28T, Q32K, G34A, G57D, A72T, Y92I, D93N, T98S
notes: as for B1
B4: 40579p1.D8 (scFv, V domains shown)
VH: B2 VH
VL: EIVLTQSPGTLSLSPGERATLSCRASQSIRSDLAWYQQKPGQAPRLLIYNTVTRATGVPDRFSGSGSGTEFTLTISSLQSEDFAVYYCQQYNSWPPLTFGGGTKVEIK
notes: as for B1
B5: 40511p1.1.H5 (scFv, V domains shown)
VH: B1 VH
VL: B4 VL with N50G, T51A, V52A, T53S, V58I, D60A, E81G
notes: as for B1
B6: 40511p1.2.B5 (scFv, V domains shown)
VH: DVQLVESGGGVVRPGESLRLSCAASGFTFSSYAMSWVRQAPGEGLEWVSSISGSGGSTLYADSVKGRFTISRDSSNNSLYLQMNSLRAEDTAVYYCAKARNNFFDYWGLGTLVTVSS
VL: EIVLTQSPGTLTLSPGERATLSCRASRSILTSLAWYQQRPGQTPRLLIYGANSRATGIPDRFSGSGSGTEFTLTISSLQSEDFAVYYCQQYYDWLTITFGGGTKVEIK
notes: as for B1
B7: 40511p1.2.A8 (scFv, V domains shown)
VH: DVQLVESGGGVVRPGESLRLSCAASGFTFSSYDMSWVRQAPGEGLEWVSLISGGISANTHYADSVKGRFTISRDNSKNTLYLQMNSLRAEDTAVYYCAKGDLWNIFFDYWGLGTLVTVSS
VL: EIVLTQSPATLSVSPGERATFSCRASQNVRSYLAWYQQKPGQAPRLLIFNTVTRATGIPDRFSGSGSGTDFTLTISSLEPEDFAVYYCQQYYDWPPLTFGGGTKVEIK
notes: as for B1
B8: 40511p1.2.A12 (scFv, V domains shown)
VH: DVQLVESGGGVVRPGESLRLSCAASGFTFSSYAESWVRQAPGEGLEWVSIISGSGGNTFYADSVKGRFTISRDNSKNTLYLQMNSLRAEDTAVYYCARFAYGFFDYWGLGTLVTVSS
VL: EIVLTQSPGTLSVSPGERATLSCRASQTVGSKLAWYQQKPGQPPSLLIYDASTRATGIPDRFSGSGSGTDFTLTISSLQSEDFAVYYCQQYRNWPPLTFGGGTKVEIK
notes: Tested as scFv-Fc (Expi293 supernatant); also called 40511p1.2.Al2
B9: 40579p1.B8 (scFv, V domains shown)
VH: EVQLLESGGGLVQPGGSLRLSCAASGFTFSDYYMSWVRQAPGKGLEWVSGISMSSTIYYADSVKGRFTISRDNSKNTLYLQMNSLRAEDTAVYYCARHRSPYQYRSMDVWGQGTTVTVSS
VL: B8 VL with V13L, T28S, G30N, T53R, D70E, R92N
notes: as for B1
B10: 40579p1.C2 (scFv, V domains shown)
VH: B2 VH with G10D, T28N, D31S, Y33W, S50G, T58N, T59A, I71V, A98G, C106Y
VL: B8 VL with G9A, L21F, V29I, S31N, P43A, S45R, Y49F, D50S, G57D, R92N
notes: as for B1
B11: 40511p1.1.G1 (scFv, V domains shown)
VH: B8 VH
VL: B8 VL with R18G
notes: as for B1
B12: 40511p1.2.A4 (scFv, V domains shown)
VH: B8 VH
VL: B8 VL with P43A, S45R, G57D
notes: as for B1
B13: 40579p1.H11 (scFv, V domains shown)
VH: EVQLLESGGGLVQPGGSLRLSCAASGFTFDDYGMSWVRQAPGKGLEWVSAIRSKASSYATYYADSVKGRFTVSRDNSENTLYLQMNSLRAEDTAVYYCAKHRSNYYFMDVWGQGTTVTVSS
VL: B1 VL with N10T, Q32D, G34A, K39R, G50A, T53S, G57D, E70D, A72T, D93S
notes: as for B1

Molecular target: T1, His-tagged human B7-H3
Test: ELISA, coated His-tagged antigen, scFv-Fc 1 ug/ml

ELISA OD450 @ 1 ug/ml [OD450] | Binder
0.641 | B1
0.492 | B2
1.98 | B3
1.01 | B4
1.71 | B5
2.14 | B6
2.11 | B7
2.13 | B8
2.21 | B9
2.12 | B10
2.2 | B11
2.06 | B12

Molecular target: T2, His-tagged cynomolgus monkey B7-H3
Test: ELISA, coated His-tagged antigen, scFv-Fc 1 ug/ml

ELISA OD450 @ 1 ug/ml [OD450] | Binder
0.769 | B13
2.03 | B1
1.33 | B2
2.37 | B3
1.87 | B4
2.22 | B5
2.12 | B6
2.34 | B7
2.34 | B8
2.08 | B9
2.18 | B10
2.28 | B11
2.3 | B12

Molecular target: T3, His-tagged mouse B7-H3
Test: ELISA, coated His-tagged antigen, scFv-Fc 1 ug/ml

ELISA OD450 @ 1 ug/ml [OD450] | Binder
0.051 | B13
0.138 | B1
0.283 | B2
1.45 | B3
0.48 | B4
0.758 | B5
0.771 | B6
0.055 | B7
1.7 | B8
1.98 | B9
1.82 | B10
1.67 | B11
1.55 | B12

Molecular target: T4, B7-H3 on B7-H3-expressing CHO cells …
Test: flow cytometry, B7-H3-expressing CHO cells, 10 ug/ml
Procedure, shortened: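 Antibodies at 10 μg/ml in PBS/1% BSA/0.01% NaN3 incubated 60 min on ice with ~1.5e5 cells; parental CHO cells as counterscreen. After washing, read by flow cytometry; values are mean fluorescent intensities (MFI).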

MFI @ 10 ug/ml [MFI] | Binder
11600 | B13
22100 | B1
36000 | B2
78500 | B3
40800 | B4
62200 | B5
67900 | B6
25400 | B7
77200 | B8
85500 | B9
75400 | B10
74500 | B11
82700 | B12

Molecular target: T3, His-tagged mouse B7-H3
Test: ELISA, coated His-tagged antigen

binding result | Binder
no binding (tested: 1 ug/ml) | B13
no binding (tested: 1 ug/ml) | B7

Molecular target: T1, His-tagged human B7-H3
Test: ELISA OD450 on hu B7-H3 over OD450 on mu B7-H3

hu:mu ratio | Binder
4.64 | B1
1.74 | B2
1.37 | B3
2.1 | B4
2.25 | B5
2.78 | B6
38.4 | B7
1.25 | B8
1.12 | B9
1.16 | B10
1.32 | B11
1.33 | B12
